B1: Protein OPY2 (Saccharomyces cerevisiae), Q06810 (parent)
chain: MSSSSKASASSSLSSTATSSTSATRGSDGCVVCDSTASCPVCASGEYCVMTSLTCDKCPSTYCAKQSDSQLSSLSSSSSSSSSSNSNEKTSLIVGFTVGIVGGAMLIALVALYFINKRYWKPKRQKNKALKLEEASQSYGNEEEYFDDEDDDDEDDEDDGGMRKDESHTLFNTSLVPPTLNVPGNRSSASTTRTRASNILPIAYIPGVTSGLSTDKLQSKLRSSSKRQNAAGDIRSHITLGSSILDGLDDEDDEHNQVLNKDADDNLITAIRAKPKLVQIAEEESDKEIQDLDVIEEQTEADDLSHMAKSEASHGNNDEDDDEEGSFILDLEIPESIRESTQGSRTESPFEDKFEIHDER
partner: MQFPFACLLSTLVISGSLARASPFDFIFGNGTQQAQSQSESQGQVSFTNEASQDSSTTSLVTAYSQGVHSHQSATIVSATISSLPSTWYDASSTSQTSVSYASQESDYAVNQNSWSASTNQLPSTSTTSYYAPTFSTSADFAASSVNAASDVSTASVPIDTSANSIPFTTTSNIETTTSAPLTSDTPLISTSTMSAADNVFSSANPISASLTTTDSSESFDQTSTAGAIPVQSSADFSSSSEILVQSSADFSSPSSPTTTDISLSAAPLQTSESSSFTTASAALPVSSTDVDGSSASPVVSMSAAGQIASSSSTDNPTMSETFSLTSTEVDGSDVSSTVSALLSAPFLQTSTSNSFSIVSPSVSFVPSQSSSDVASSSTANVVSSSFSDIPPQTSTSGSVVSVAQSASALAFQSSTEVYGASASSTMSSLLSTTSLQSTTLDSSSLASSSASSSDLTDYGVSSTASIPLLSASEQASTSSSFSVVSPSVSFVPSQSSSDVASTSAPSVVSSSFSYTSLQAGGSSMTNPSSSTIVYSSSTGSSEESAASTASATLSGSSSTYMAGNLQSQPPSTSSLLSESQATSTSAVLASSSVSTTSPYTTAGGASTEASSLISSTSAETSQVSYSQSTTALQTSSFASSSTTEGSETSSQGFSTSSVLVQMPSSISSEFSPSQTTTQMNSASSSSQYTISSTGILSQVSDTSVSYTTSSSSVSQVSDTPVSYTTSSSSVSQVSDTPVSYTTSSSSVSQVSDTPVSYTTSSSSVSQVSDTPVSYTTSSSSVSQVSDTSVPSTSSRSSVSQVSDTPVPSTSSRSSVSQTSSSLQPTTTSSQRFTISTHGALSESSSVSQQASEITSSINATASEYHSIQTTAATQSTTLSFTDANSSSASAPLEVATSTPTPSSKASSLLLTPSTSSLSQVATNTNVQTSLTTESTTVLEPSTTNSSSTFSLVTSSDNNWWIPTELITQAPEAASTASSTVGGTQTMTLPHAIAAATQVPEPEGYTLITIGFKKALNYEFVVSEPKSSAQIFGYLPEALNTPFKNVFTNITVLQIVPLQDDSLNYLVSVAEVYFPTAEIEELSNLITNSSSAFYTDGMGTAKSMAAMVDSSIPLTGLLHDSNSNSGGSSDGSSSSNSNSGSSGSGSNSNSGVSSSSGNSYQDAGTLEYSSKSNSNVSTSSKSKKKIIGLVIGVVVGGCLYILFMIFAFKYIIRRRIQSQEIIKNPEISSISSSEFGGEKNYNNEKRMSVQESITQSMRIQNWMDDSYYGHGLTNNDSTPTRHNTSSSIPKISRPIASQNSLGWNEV

Variants of: B1
Conditions: with msb2_yeast MSB2, P32334

| Variant | effect of a mutation on the interaction |
| --- | --- |
| MSSSSKASASSSLSSTATSSTSATRGSDGAVVCDSTASCPVAASGEYCVMTSLTCDKCPSTYCAKQSDSQLSSLSSSSSSSSSSNSNEKTSLIVGFTVGIVGGAMLIALVALYFINKRYWKPKRQKNKALKLEEASQSYGNEEEYFDDEDDDDEDDEDDGGMRKDESHTLFNTSLVPPTLNVPGNRSSASTTRTRASNILPIAYIPGVTSGLSTDKLQSKLRSSSKRQNAAGDIRSHITLGSSILDGLDDEDDEHNQVLNKDADDNLITAIRAKPKLVQIAEEESDKEIQDLDVIEEQTEADDLSHMAKSEASHGNNDEDDDEEGSFILDLEIPESIRESTQGSRTESPFEDKFEIHDER [C30A;C42A] | disrupting interaction strength |
| MSSSSKASASSSLSSTATSSTSATRGSDGCVVADSTASAPVCASGEYCVMTSLTCDKCPSTYCAKQSDSQLSSLSSSSSSSSSSNSNEKTSLIVGFTVGIVGGAMLIALVALYFINKRYWKPKRQKNKALKLEEASQSYGNEEEYFDDEDDDDEDDEDDGGMRKDESHTLFNTSLVPPTLNVPGNRSSASTTRTRASNILPIAYIPGVTSGLSTDKLQSKLRSSSKRQNAAGDIRSHITLGSSILDGLDDEDDEHNQVLNKDADDNLITAIRAKPKLVQIAEEESDKEIQDLDVIEEQTEADDLSHMAKSEASHGNNDEDDDEEGSFILDLEIPESIRESTQGSRTESPFEDKFEIHDER [C33A;C39A] | disrupting interaction strength |
| MSSSSKASASSSLSSTATSSTSATRGSDGAVVCDSTASCPVCASGEYCVMTSLTADKCPSTYCAKQSDSQLSSLSSSSSSSSSSNSNEKTSLIVGFTVGIVGGAMLIALVALYFINKRYWKPKRQKNKALKLEEASQSYGNEEEYFDDEDDDDEDDEDDGGMRKDESHTLFNTSLVPPTLNVPGNRSSASTTRTRASNILPIAYIPGVTSGLSTDKLQSKLRSSSKRQNAAGDIRSHITLGSSILDGLDDEDDEHNQVLNKDADDNLITAIRAKPKLVQIAEEESDKEIQDLDVIEEQTEADDLSHMAKSEASHGNNDEDDDEEGSFILDLEIPESIRESTQGSRTESPFEDKFEIHDER [C30A;C55A] | decreasing interaction strength |
| MSSSSKASASSSLSSTATSSTSATRGSDGCVVADSTASCPVCASGEYCVMTSLTCDKAPSTYCAKQSDSQLSSLSSSSSSSSSSNSNEKTSLIVGFTVGIVGGAMLIALVALYFINKRYWKPKRQKNKALKLEEASQSYGNEEEYFDDEDDDDEDDEDDGGMRKDESHTLFNTSLVPPTLNVPGNRSSASTTRTRASNILPIAYIPGVTSGLSTDKLQSKLRSSSKRQNAAGDIRSHITLGSSILDGLDDEDDEHNQVLNKDADDNLITAIRAKPKLVQIAEEESDKEIQDLDVIEEQTEADDLSHMAKSEASHGNNDEDDDEEGSFILDLEIPESIRESTQGSRTESPFEDKFEIHDER [C33A;C58A] | decreasing interaction strength |
